Numbering of substitutions follows the chain as printed.
B1: h38H12.1 (antibody, V domains shown)
VH: EVQLVESGGGVVQPGRSLRLSCAASGFTFSNYGMYWVRQAPGKGLEWVAFISHGGGITYYRDSVKGRFTISRDNSKNTLYLQMNSLRAEDTAVYYCARLNWELGIDYWGQGTMVTVSS
VL: DIQMTQSPSSLSASVGDRVTITCRASEDIYSNLAWYQQKPGKAPKLLIYAANRLQDGVPSRFSGSGSGTDFTLTISSLQPEDFATYYCLQGSKFPLTFGQGTKLEIKR
notes: humanized IgG; also called VH.1/VL.1 38H12
B2: h1A11.B5 (antibody, V domains shown)
VH: EVQLVESGGGLVQPGGSLRLSCAASGFTFRYFPMSWVRQAPGKGLEWVASISGSDGWASYRDSVKGRFTISRDNAKNSLYLQMNSLRAEDTAVYYCARGYYNSPFASWGQGTLVTVSS
VL: DIQMTQSPSSLSASVGDRVTITCRASQDIWNNLAWYQQKPGKSPKLLIFDTSYLADGVPSRFSGSGSGTDFTLTISSLQPEDFATYYCQQYDWYPPTFGQGTKLEIK
notes: also called h1A11.B5 VH / h1A11.B5 VL
B3: h1A11.11 (antibody, V domains shown)
VH: B2 VH with R30S, Y31N, S35A, S50T, G53S, W57T, A58T, S59Y, A97S, S107Y
VL: DIQMTQSPSSLSASVGDRVTITCRASEDIYSNLAWYQQKPGKAPKLLIFDTNNLADGVPSRFSGSGSGTDFTLTISSLQPEDFATYYCQQYNNYPPTFGQGTKLEIKR
notes: humanized IgG; also called VH.1b/VL.1b 1A11
B4: h1A11.12 (antibody, V domains shown)
VH: B2 VH with R30S, Y31N, S35A, S50T, G53S, W57T, A58T, S59Y, A97S, S107Y
VL: EIVMTQSPATLSVSPGERATLSCRASEDIYSNLAWYQQKPGQSPRLLIFDTNNLADGVPARFSGSGSGTESTLTISSLQSEDFAVYFCQQYNNYPPTFGQGTKLEIKR
notes: humanized IgG; also called VH.1b/VL.2a 1A11
B5: h1A11.10 (antibody, V domains shown)
VH: B2 VH with R30S, Y31N, S35A, S50T, G53S, W57T, A58T, S59Y, A97S, S107Y
VL: B3 VL with A43S, F71S, Y87F
notes: humanized IgG; also called VH.1b/VL.1a 1A11
B6: h1A11.13 (antibody, V domains shown)
VH: EVQLVESGGGLVQPGGSLRLSCAASGFTFSNFPMAWVRQAPGKGLEWVATISSSDGTTYYRDSVKGRFTISRDNSKSTLYLQMNSLRAEDTAVYYCSRGYYNSPFAYWGQGTLVTVSS
VL: B3 VL with F49Y
notes: humanized IgG; also called VH.2a/VL.1 1A11
B7: h1A11.14 (antibody, V domains shown)
VH: B6 VH
VL: B3 VL with A43S, F71S, Y87F
notes: humanized IgG; also called VH.2a/VL.1a 1A11
B8: h1A11.15 (antibody, V domains shown)
VH: B6 VH
VL: B3 VL
notes: humanized IgG; also called VH.2a/VL.1b 1A11
B9: h1A11.16 (antibody, V domains shown)
VH: B6 VH
VL: B4 VL
notes: humanized IgG; also called VH.2a/VL.2a 1A11
B10: h38H12.3 (antibody, V domains shown)
VH: B1 VH
VL: B1 VL with F71Y
notes: humanized IgG; also called VH.1/VL.1b 38H12
B11: h38H12.2 (antibody, V domains shown)
VH: B1 VH
VL: B1 VL with Q38K, A43S, F71Y, Y87F
notes: humanized IgG; also called VH.1/VL.1a 38H12
B12: h38H12.4 (antibody, V domains shown)
VH: B1 VH
VL: EIVMTQSPATLSVSPGERATLSCRASEDIYSNLAWYQKKPGQSPRLLIYAANRLQDGVPARFSGSGSGTEYTLTISSLQSEDFAVYFCLQGSKFPLTFGQGTKLEIKR
notes: humanized IgG; also called VH.1/VL.2a 38H12

Molecular target: T1, human DLL4, full length, on cells (human, UniProt Q9NR61 27-685)
T1 construct: also called huDLL4 cells; human DLL4-293G
T1 sequence (Q9NR61 27-685 limits assumed): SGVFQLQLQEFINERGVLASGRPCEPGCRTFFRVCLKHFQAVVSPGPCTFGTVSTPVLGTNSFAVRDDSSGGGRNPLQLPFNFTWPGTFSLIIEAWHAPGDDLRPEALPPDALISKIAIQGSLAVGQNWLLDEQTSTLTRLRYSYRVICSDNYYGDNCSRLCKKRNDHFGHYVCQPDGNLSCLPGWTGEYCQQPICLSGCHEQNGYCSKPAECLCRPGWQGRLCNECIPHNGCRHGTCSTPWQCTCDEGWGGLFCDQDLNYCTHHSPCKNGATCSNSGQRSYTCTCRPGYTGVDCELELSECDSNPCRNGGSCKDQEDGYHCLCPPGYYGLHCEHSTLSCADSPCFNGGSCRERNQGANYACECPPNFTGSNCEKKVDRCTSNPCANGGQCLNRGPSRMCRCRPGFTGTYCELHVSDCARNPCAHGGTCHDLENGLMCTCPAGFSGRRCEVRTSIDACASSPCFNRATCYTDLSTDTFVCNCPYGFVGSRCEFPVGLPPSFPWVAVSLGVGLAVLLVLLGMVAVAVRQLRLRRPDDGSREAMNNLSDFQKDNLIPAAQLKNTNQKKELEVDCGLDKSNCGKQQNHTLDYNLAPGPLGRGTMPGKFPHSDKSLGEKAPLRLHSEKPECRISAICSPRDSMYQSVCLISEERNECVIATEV
Assay: FACS, DLL4 cells
Protocol: Stable cell lines overexpressing cell-surface DLL4 were harvested from tissue culture flasks, washed four times and resuspended in phosphate buffered saline (PBS) containing 1% bovine serum albumin and 1 mM CaCl₂ (FACS buffer). 1.5×10⁵ cells were incubated with antibodies at various concentrations in FACS buffer for 60 minutes on ice. […] Following an incubation on ice (4° C., 60 minutes), cells were washed three times and resuspended in FACS buffer. Fluorescence was measured using a Becton Dickinson FACSCalibur-HTS (Becton Dickinson, San Jose, Calif., US). Data were analyzed using Graphpad Prism software and EC₅₀ values were reported as the concentration of antibody to achieve 50% of maximal DLL4 antibodies binding to DLL4 expressing cells.
The good binder variants, as determined by binding ELISA, were assessed by Biacore (Example 1.1) concurrently with cell based assay screens. The KD for human DLL4 was similar for all variants (see, Biacore, KD in Table 18, below).

Binder	EC50
B1	17800 pM

Molecular target: T2, rat DLL4 extracellular domain (rat, UniProt D3ZHH1 28-530)
T2 construct: extracellular domain; also called ratDLL4 ECD
T2 sequence (D3ZHH1 28-530): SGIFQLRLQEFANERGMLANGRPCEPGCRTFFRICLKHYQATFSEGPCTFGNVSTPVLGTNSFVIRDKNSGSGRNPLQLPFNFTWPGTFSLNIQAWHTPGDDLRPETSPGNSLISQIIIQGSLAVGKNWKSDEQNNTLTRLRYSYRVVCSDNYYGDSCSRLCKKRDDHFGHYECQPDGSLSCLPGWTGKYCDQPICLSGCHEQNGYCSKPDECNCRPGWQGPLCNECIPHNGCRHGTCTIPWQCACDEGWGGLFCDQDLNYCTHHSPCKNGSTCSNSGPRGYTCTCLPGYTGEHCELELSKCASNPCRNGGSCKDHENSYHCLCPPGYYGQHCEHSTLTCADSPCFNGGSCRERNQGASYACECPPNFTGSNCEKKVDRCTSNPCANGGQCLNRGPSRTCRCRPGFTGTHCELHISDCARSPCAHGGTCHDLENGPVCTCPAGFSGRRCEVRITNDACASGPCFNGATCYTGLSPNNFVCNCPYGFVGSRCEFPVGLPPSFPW
Assay: SPR (Biacore)
Protocol: (§1) The BIACORE® surface plasmon resonance assay (Biacore, Inc., Piscataway, N.J., US) determines the affinity of antibodies with kinetic measurements of on-rate and off-rate constants. Binding of DLL4 antibodies to a purified recombinant DLL4 extracellular domain (ECD) was determined by surface plasmon resonance-based measurements with a Biacore® instrument (either a Biacore 2000, Biacore 3000, or Biacore T100; GE Healthcare, Piscataway, N.J., US) using running buffer HBS-EPB (10 mM HEPES [pH 7.4], 150 mM NaCl, 3 mM EDTA, 0.1 mg/ml BSA and 0.005% surfactant P20) at 25° C. For example, approximately 9000 RU of goat anti-human Fc specific polyclonal antibody (Thermo Fisher Scientific Inc., Rockford, Ill., US) diluted in 10 mM sodium acetate (pH 4.5) is directly immobilized across a CMS research grade biosensor chip using a standard amine coupling kit according to manufacturer's instructions and procedures at 25 μg/ml. Unreacted moieties on the biosensor surface were blocked with ethanolamine. For kinetic analysis, rate equations derived from the 1:1 Langmuir binding model were fitted simultaneously to multiple antigen injections (using global fit analysis) with the use of Scrubber 2 (BioLogic Software), Biacore Biaevaluation 4.0.1 software or Biacore T100 Evaluation software. Purified antibodies were diluted in running buffer for capture across goat anti-human Fc reaction surfaces. Antibodies to be captured as a ligand (1 μg/ml) were injected over reaction matrices at a flow rate of 10 μl/min. During the assay, all measurements were referenced against the capture surface alone (i.e., with no captured anti-DLL4 antibody). […] The equilibrium dissociation constant KD (M) of the reaction between antibodies and the target antigen was then calculated from the kinetic rate constants by the following formula: KD=Koff/Kₒₙ. Binding was recorded as a function of time and kinetic rate constants were calculated.

Binder	Kd	koff	kon
B2	410000 pM	0.0397 s⁻¹	98200 M⁻¹ s⁻¹

Molecular target: T3, mouse DLL4 extracellular domain (mouse, UniProt Q9JI71 27-532)
T3 construct: extracellular domain; also called muDLL4 ECD; murine DLL4
T3 sequence (Q9JI71 27-532): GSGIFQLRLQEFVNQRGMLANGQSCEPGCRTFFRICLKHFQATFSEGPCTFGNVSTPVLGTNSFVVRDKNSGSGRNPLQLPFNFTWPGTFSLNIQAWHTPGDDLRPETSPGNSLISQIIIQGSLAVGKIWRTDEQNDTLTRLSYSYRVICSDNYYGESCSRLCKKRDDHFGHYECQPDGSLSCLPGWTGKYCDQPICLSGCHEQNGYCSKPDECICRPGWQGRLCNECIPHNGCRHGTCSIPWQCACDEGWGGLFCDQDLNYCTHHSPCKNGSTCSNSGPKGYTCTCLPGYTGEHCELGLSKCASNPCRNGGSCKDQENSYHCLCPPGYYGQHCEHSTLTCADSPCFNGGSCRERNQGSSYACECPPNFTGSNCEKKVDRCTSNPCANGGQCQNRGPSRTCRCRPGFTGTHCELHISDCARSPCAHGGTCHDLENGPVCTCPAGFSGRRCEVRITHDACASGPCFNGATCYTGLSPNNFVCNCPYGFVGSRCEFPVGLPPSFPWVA
Assay: SPR (Biacore)
Protocol: as §1

Binder	Kd	koff	kon
B2	1200 pM	0.000166 s⁻¹	145000 M⁻¹ s⁻¹

Molecular target: T4, human DLL4 extracellular domain (human, UniProt Q9NR61 27-529)
T4 construct: purified recombinant ECD; biotin-labelled or 6xHis-tagged depending on the assay; also called huDLL4 ECD; hu DLL4 ECD
T4 sequence (Q9NR61 27-529 limits assumed): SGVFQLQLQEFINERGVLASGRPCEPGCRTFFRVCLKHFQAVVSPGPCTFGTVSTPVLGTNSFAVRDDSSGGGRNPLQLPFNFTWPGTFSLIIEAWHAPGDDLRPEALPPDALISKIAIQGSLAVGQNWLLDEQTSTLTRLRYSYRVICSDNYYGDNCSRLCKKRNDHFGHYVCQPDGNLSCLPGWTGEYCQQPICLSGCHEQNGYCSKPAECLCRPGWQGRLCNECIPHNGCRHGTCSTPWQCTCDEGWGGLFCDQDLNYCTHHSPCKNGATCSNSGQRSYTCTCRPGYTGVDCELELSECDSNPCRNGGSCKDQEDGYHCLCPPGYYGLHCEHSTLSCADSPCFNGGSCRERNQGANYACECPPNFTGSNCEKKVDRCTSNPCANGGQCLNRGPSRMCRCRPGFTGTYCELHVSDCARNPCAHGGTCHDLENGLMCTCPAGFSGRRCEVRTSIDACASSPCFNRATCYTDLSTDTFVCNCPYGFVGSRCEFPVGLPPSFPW
Assay: SPR (Biacore)
Protocol: as §1

Binder	Kd	koff	kon
B2	1000 pM	0.000134 s⁻¹	130000 M⁻¹ s⁻¹

Molecular target: T5, cynomolgus monkey DLL4 extracellular domain (cynomolgus monkey)
T5 construct: extracellular domain; also called cynoDLL4 ECD; Cyno DLL4
Assay: SPR (Biacore)
Protocol: as §1

Binder	Kd	koff	kon
B2	1500 pM	0.000178 s⁻¹	117000 M⁻¹ s⁻¹

Molecular target: T4, human DLL4 extracellular domain
Assay: binding ELISA
Protocol: (§2) Plates were then washed 3 times. 100 μl/well of recombinant rat/human chimeric or recombinant human anti-DLL4 antibodies were then added to the plate (0.00164-27 nM, 4-fold serial dilution in ELISA buffer=PBST, 10% Superblock (Pierce #37515)) for 1 hour at 25° C. with shaking and then washed again 3 times. Plates were incubated with goat anti-human HRP (Pierce #31412) (1:40,000 dilution in ELISA buffer, 100 μl/well) for 1 hour at 25° C. with shaking, then washed 3 times. After the final wash, plates were incubated with 100 μl/well ELISA substrate (Sigma #T8665). The reaction was stopped after 8 minutes at 25° C. with 100 μl/well 1N HCl and the absorbance was read at 450 nm. Data were analyzed using Graphpad Prism software, and EC50 values were reported.
(§3) Purified variants were further characterized for their affinities for human, murine and cynomolgus DLL4 by binding ELISA (Example 1.2, Method 2), by Biacore (Example 1.1), and by Flow Cytometry (FACS). […] The humanized variants were then tested for their functionality with human and murine DLL4 by competition ELISA (Example 1.3) and by Notch reporter assay (Example 1.6).

Binder	EC50
B3	70 pM
B4	60 pM
B5	60 pM
B6	60 pM
B7	55 pM
B8	70 pM
B9	60 pM

Molecular target: T3, mouse DLL4 extracellular domain
Assay: binding ELISA
Protocol: as §2, §3

Binder	EC50
B3	90 pM
B4	80 pM
B5	90 pM
B6	90 pM
B7	70 pM
B8	90 pM
B9	90 pM

Molecular target: T5, cynomolgus monkey DLL4 extracellular …
Assay: binding ELISA
Protocol: as §2, §3

Binder	EC50
B3	150 pM
B4	160 pM
B5	150 pM
B6	160 pM
B7	140 pM
B8	130 pM
B9	120 pM

Molecular target: T1, human DLL4, full length, on cells
Assay: cell-based or functional assay

Binder	Reporter Assay (EC50, nM)
B3	3.73 nM
B4	2.89 nM
B5	5.88 nM
B6	10.4 nM
B7	4.1 nM
B8	5.4 nM
B9	2.61 nM

Molecular target: T4, human DLL4 extracellular domain
Assay: capture ELISA, biotin-huDLL4 ECD

Binder	EC50
B1	21500 pM
B10	5570 pM
B11	26900 pM
B12	20600 pM

Molecular target: T4, human DLL4 extracellular domain
Assay: competition ELISA vs Notch-1
Protocol: (§4) Plates were then washed 3 times with wash buffer (PBS, 0.05% Tween-20) and blocked with 200 μl/well blocking buffer (D-PBS, 1% BSA, 1 mM CaCl₂, 0.05% Tween-20) for 1 hour at 25° C. While blocking, biotin labeled DLL4 extracellular domain (14 nM) was mixed with antibody (30 pM-66 nM, 3-fold serial dilution in blocking buffer) for 1 hour at 25° C. with shaking. Assay plates were washed after blocking, and incubated with DLL4/antibody mixtures (100 μl/well, 1 hour at 25° C. with shaking). Plates were washed again and 100 μl/well streptavidin conjugated with HRP (Fitzgerald #65R-S104PHRPx, diluted 1:5,000 in blocking buffer) was added for 1 hour at 25° C. with shaking. After a final wash, plates were developed using 100 μl/well substrate (TMB Sigma #T8665), and the reaction was stopped using 100 μl/well 1N HCl, and the absorbance was read at 450 nm. Data were analyzed using Graphpad Prism software and IC₅₀ values were reported as the concentration of antibody to achieve 50% reduction of DLL4 bound to Notch1.
as §3

Binder	IC50
B3	400 pM
B4	400 pM
B5	350 pM
B6	300 pM
B7	250 pM
B8	200 pM
B9	300 pM

Molecular target: T3, mouse DLL4 extracellular domain
Assay: competition ELISA vs Notch-1
Protocol: as §4, §3

Binder	IC50
B3	800 pM
B4	900 pM
B5	900 pM
B6	1000 pM
B7	700 pM
B8	700 pM
B9	700 pM

Molecular target: T4, human DLL4 extracellular domain
Assay: SPR (Biacore)
Remark: another data set of the same source
Protocol: as §1

Binder	Kd
B3	12000 pM
B4	14000 pM
B5	13000 pM
B6	14000 pM
B7	13000 pM
B8	14000 pM
B9	15000 pM

Molecular target: T3, mouse DLL4 extracellular domain
Assay: SPR (Biacore)
Remark: another data set of the same source
Protocol: as §1

Binder	Kd
B3	27000 pM
B4	35000 pM
B5	35000 pM
B6	37000 pM
B7	28000 pM
B8	37000 pM
B9	39000 pM

— patent publication US20110217237A1 (AbbVie / Abbott, published 2011)
